Experimental data from patent US20260008817A1, “CYCLIC PEPTIDE OR SALT THEREOF, AND USES THEREOF” (FUJIFILM Corporation, priority 2023, published 2026).
Positions of bridges follow the written chain, without caps; N, C: chain ends. No end group written: not given here. COCH2 = acetyl group that carries the bridge

molecular target: T1, Recombinant Human FGFR1 alpha (IIIc) Fc Chimera Protein (Homo sapiens, UniProt P11362); assay: ELISA binding affinity of enzymatically synthesized peptide to FGFR; conditions: ELISA luminescence signal at 10 nmol/L peptide, SEQ ID NO: 239 standardized to 1; enzyme synthesis product
T1 construct: purchased R&D systems 658-FR-050
Procedure, shortened: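 Cell-free PUREfrex-translated cyclic peptides (Myc/HiBiT-tagged, quantified by HiBiT luminescence) bound 3 h at room temperature to immobilized FGFR1α(IIIc)-Fc, detected with anti-Myc and chemiluminescence. FGFR-specific signal at 10 nmol/L normalized to a reference cyclic peptide and graded A–D.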

T1 sequence (P11362 with tags, fused parts or gaps limits assumed): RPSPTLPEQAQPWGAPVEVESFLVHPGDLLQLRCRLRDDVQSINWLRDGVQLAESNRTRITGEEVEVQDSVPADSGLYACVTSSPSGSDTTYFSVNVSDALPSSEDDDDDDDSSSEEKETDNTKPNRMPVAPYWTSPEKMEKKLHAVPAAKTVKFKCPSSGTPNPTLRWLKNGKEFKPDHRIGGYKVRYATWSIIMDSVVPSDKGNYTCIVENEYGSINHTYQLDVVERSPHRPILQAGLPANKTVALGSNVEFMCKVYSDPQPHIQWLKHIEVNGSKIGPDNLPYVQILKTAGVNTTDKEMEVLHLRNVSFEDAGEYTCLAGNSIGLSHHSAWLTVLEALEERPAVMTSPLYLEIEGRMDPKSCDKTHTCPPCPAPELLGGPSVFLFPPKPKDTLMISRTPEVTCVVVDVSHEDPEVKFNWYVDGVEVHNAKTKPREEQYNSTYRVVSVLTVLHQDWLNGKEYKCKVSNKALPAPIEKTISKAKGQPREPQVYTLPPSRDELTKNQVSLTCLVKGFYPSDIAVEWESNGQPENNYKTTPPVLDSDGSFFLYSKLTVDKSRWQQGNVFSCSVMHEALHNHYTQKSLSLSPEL

Evaluation result of binding affinity to FGFR, C (0.1 or more and less than 0.5):
137 (ICVYTFDAHAFSLHAALTKI; Description of Artificial Sequence: Cyclic peptide) [compound 137], 138 (ICVYTFDAHAYSLHAALTKI; Description of Artificial Sequence: Cyclic peptide) [compound 138], 139 (ICVYTFDAHAWSLHAALTKI; Description of Artificial Sequence: Cyclic peptide) [compound 139], 148 (ICVYTFDAHAHGLHAALTK(COCH2)I; thioether 2-19 (inferred)) [compound 148], 149 (ICVYTFDAHAHLLHAALTK(COCH2)I; thioether 2-19 (inferred)) [compound 149], 150 (ICVYTFDAHAHILHAALTK(COCH2)I; thioether 2-19 (inferred)) [compound 150], 151 (ICVYTFDAHAHVLHAALTK(COCH2)I; thioether 2-19 (inferred)) [compound 151], 152 (ICVYTFDAHAHFLHAALTK(COCH2)I; thioether 2-19 (inferred)) [compound 152], 153 (ICVYTFDAHAHYLHAALTK(COCH2)I; thioether 2-19 (inferred)) [compound 153], 154 (ICVYTFDAHAHWLHAALTK(COCH2)I; thioether 2-19 (inferred)) [compound 154], 160 (ICVYTFDAHAHRLHAALTK(COCH2)I; thioether 2-19 (inferred)) [compound 160], 161 (ICVYTFDAHAHHLHAALTK(COCH2)I; thioether 2-19 (inferred)) [compound 161], 163 (ICVYTFDAHAHSGHAALTK(COCH2)I; thioether 2-19 (inferred)) [compound 163], 164 (ICVYTFDAHAHSPHAALTK(COCH2)I; thioether 2-19 (inferred)) [compound 164], 169 (ICVYTFDAHAHSWHAALTK(COCH2)I; thioether 2-19 (inferred)) [compound 169], 170 (ICVYTFDAHAHSQHAALTK(COCH2)I; thioether 2-19 (inferred)) [compound 170], 173 (ICVYTFDAHAHSEHAALTK(COCH2)I; thioether 2-19 (inferred)) [compound 173], 174 (ICVYTFDAHAHSRHAALTK(COCH2)I; thioether 2-19 (inferred)) [compound 174], 182 (ICVYTFDAHAHSLFAALTK(COCH2)I; thioether 2-19 (inferred)) [compound 182], 184 (ICVYTFDAHAHSLWAALTK(COCH2)I; thioether 2-19 (inferred)) [compound 184]

Evaluation result of binding affinity to FGFR, A (0.7 or more):
140 (ICVYTFDAHANSLHAALTK(COCH2)I; thioether 2-19 (inferred)) [compound 140], 141 (ICVYTFDAHAQSLHAALTK(COCH2)I; thioether 2-19 (inferred)) [compound 141], 142 (ICVYTFDAHASSLHAALTK(COCH2)I; thioether 2-19 (inferred)) [compound 142], 143 (ICVYTFDAHATSLHAALTK(COCH2)I; thioether 2-19 (inferred)) [compound 143], 144 (ICVYTFDAHADSLHAALTK(COCH2)I; thioether 2-19 (inferred)) [compound 144], 145 (ICVYTFDAHAESLHAALTK(COCH2)I; thioether 2-19 (inferred)) [compound 145], 146 (ICVYTFDAHARSLHAALTK(COCH2)I; thioether 2-19 (inferred)) [compound 146], 155 (ICVYTFDAHAHNLHAALTK(COCH2)I; thioether 2-19 (inferred)) [compound 155], 156 (ICVYTFDAHAHQLHAALTK(COCH2)I; thioether 2-19 (inferred)) [compound 156], 157 (ICVYTFDAHAHTLHAALTK(COCH2)I; thioether 2-19 (inferred)) [compound 157], 158 (ICVYTFDAHAHDLHAALTK(COCH2)I; thioether 2-19 (inferred)) [compound 158], 159 (ICVYTFDAHAHELHAALTK(COCH2)I; thioether 2-19 (inferred)) [compound 159], 162 (ICVYTFDAHAHSAHAALTK(COCH2)I; thioether 2-19 (inferred)) [compound 162], 165 (ICVYTFDAHAHSIHAALTK(COCH2)I; thioether 2-19 (inferred)) [compound 165], 166 (ICVYTFDAHAHSVHAALTK(COCH2)I; thioether 2-19 (inferred)) [compound 166], 167 (ICVYTFDAHAHSFHAALTK(COCH2)I; thioether 2-19 (inferred)) [compound 167], 168 (ICVYTFDAHAHSYHAALTK(COCH2)I; thioether 2-19 (inferred)) [compound 168], 176 (ICVYTFDAHAHSLAAALTK(COCH2)I; thioether 2-19 (inferred)) [compound 176], 177 (ICVYTFDAHAHSLGAALTK(COCH2)I; thioether 2-19 (inferred)) [compound 177], 178 (ICVYTFDAHAHSLPAALTK(COCH2)I; thioether 2-19 (inferred)) [compound 178], 185 (ICVYTFDAHAHSLNAALTK(COCH2)I; thioether 2-19 (inferred)) [compound 185], 186 (ICVYTFDAHAHSLQAALTK(COCH2)I; thioether 2-19 (inferred)) [compound 186], 187 (ICVYTFDAHAHSLSAALTK(COCH2)I; thioether 2-19 (inferred)) [compound 187], 188 (ICVYTFDAHAHSLTAALTK(COCH2)I; thioether 2-19 (inferred)) [compound 188], 189 (ICVYTFDAHAHSLDAALTK(COCH2)I; thioether 2-19 (inferred)) [compound 189], 190 (ICVYTFDAHAHSLEAALTK(COCH2)I; thioether 2-19 (inferred)) [compound 190], 192 (ICVYTFDAHAHSLHGALTK(COCH2)I; thioether 2-19 (inferred)) [compound 192]

Evaluation result of binding affinity to FGFR, B (0.5 or more and less than 0.7):
147 (ICVYTFDAHAHALHAALTK(COCH2)I; thioether 2-19 (inferred)) [compound 147], 171 (ICVYTFDAHAHSSHAALTK(COCH2)I; thioether 2-19 (inferred)) [compound 171], 172 (ICVYTFDAHAHSTHAALTK(COCH2)I; thioether 2-19 (inferred)) [compound 172], 175 (ICVYTFDAHAHSHHAALTK(COCH2)I; thioether 2-19 (inferred)) [compound 175], 179 (ICVYTFDAHAHSLLAALTK(COCH2)I; thioether 2-19 (inferred)) [compound 179], 180 (ICVYTFDAHAHSLIAALTK(COCH2)I; thioether 2-19 (inferred)) [compound 180], 181 (ICVYTFDAHAHSLVAALTK(COCH2)I; thioether 2-19 (inferred)) [compound 181], 183 (ICVYTFDAHAHSLYAALTK(COCH2)I; thioether 2-19 (inferred)) [compound 183], 191 (ICVYTFDAHAHSLRAALTK(COCH2)I; thioether 2-19 (inferred)) [compound 191]
